{"source": "patent US20180265594A1", "binders": {"B1": {"name": "anti-human VpreB1 IgG1 (2460B04 IgG1) (antibody, V domains shown)", "VH": "EVQLVESGGGLVKPGGSLRLSCAASGFTFSNFEMNWVRQAPGKGLEWVSGISSNGRYINYADSVKGRFTISRDNAKNSLYLQMNSLRAEDTAVYYCARVVDFDQDYNGFDYWGQGTLVTVSS", "VL": "DIQLTQSPSFLSASVGDRVTITCRASQGISTDLNWYQQKPGKAPKLLIYAASNLESGVPSRFSGSGSGTEFTLTISSLQPEDFATYYCQQSYNWPYTFGGGTKVEIK", "modifications": "Used unlabeled, biotin-, DIG- or HRP-labeled; the letters do not carry the labels."}}, "key": {"[1]": {"target": "αHGF S3gG (HGF-specific 3-piece Surrobody)", "experiment": "capture ELISA: anti-VpreB1 IgG (2460B04 IgG1) coated, S3gG diluted in 50% mouse serum; the concentration is that of S3gG"}, "[2]": {"target": "αHGF S2gG (HGF-specific 2-piece Surrobody)", "experiment": "capture ELISA: anti-VpreB1 IgG (2460B04 IgG1) coated, S2gG diluted in 50% mouse serum, detected with HRP-goat anti-E tag antibody; the concentration is that of S2gG"}, "[3]": {"target": "αHGF S3gG (HGF-specific 3-piece Surrobody)", "experiment": "capture ELISA: anti-VpreB1 IgG (2460B04 IgG1) coated, S3gG diluted without serum; the concentration is that of S3gG"}, "[4]": {"target": "αHGF S2gG (HGF-specific 2-piece Surrobody)", "experiment": "capture ELISA: anti-VpreB1 IgG (2460B04 IgG1) coated, S2gG diluted in 50% human or 50% monkey serum, detected with HRP-goat anti-E tag antibody; the concentration is that of S2gG"}, "[5]": {"target": "αHGF S2gG (HGF-specific 2-piece Surrobody)", "experiment": "capture ELISA: anti-VpreB1 IgG (2460B04 IgG1) coated, S2gG diluted without serum, detected with HRP-goat anti-E tag antibody; the concentration is that of S2gG"}, "[6]": {"target": "αHGF S3gG (HGF-specific 3-piece Surrobody)", "experiment": "capture ELISA: anti-VpreB1 IgG (2460B04 IgG1) coated, S3gG diluted in 50% human or 50% monkey serum; the concentration is that of S3gG"}}}
{"binder": "B1", "values": [{"measurement": "EC50 (read off the curve)", "setting": "[1]", "result": 20, "unit": "ng/mL"}, {"measurement": "EC50 (read off the curve)", "setting": "[2]", "result": 20, "unit": "ng/mL"}, {"measurement": "EC50 (read off the curve)", "setting": "[3]", "result": 4, "unit": "ng/mL"}, {"measurement": "EC50 (read off the curve)", "setting": "[4]", "result": 6, "unit": "ng/mL"}, {"measurement": "EC50 (read off the curve)", "setting": "[5]", "result": 4, "unit": "ng/mL"}, {"measurement": "EC50 (read off the curve)", "setting": "[6]", "result": 6, "unit": "ng/mL"}]}
